How the values were obtained:
[1] = molecular target: T1, human Sirt2 (Homo sapiens, UniProt Q8IXJ6); assay: Continuous coupled enzymatic assay, Sirt2; format: biochemical; conditions: 65 μM Tat-Cys^−, acetylated peptide at substrate Km, n = 3
T1 construct: Sirt2-(43-356) in a modified pET-19b; His6-Sumo; made in house; host or cells: E. coli CodonPlus(DE3)
T1 sequence (Q8IXJ6 43-356): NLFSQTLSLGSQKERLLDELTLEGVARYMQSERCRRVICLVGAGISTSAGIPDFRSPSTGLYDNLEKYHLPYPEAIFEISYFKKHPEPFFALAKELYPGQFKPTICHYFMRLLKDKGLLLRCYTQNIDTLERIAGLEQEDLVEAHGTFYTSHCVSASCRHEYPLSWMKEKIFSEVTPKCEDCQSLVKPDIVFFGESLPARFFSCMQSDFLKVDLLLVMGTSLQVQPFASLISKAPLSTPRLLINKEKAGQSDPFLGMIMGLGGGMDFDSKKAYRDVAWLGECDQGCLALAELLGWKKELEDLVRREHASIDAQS
Excerpt: (§1) A human mini-Sirt1 construct (aa 183-505-(GGGS)2-641-665), as described in [27], was generated in a modified pET-19b with a TEV cleavage site. This construct and human full-length Sirt1 (fl-Sirt1) in pET-15b, Sirt1-(183-664) and Sirt1-(214-664) in pET-15b, mini-Sirt1-∆SBD (aa 214-505-(GGGS)2-641-665) and mini-Sirt1-∆ESA (aa 183–505) in a modified pET-19b with TEV cleavage site, Sirt2-(43-356) in a modified pET-19b with a His6-Sumo tag, Sirt3-(93-399) in a modified pET-32a with Trx-His6 tag and TEV cleavage site, hSirt3-(118-399) in pVFT3S (Sungkyunkwan University, Seoul, Republic of Korea) with His6-Trx tag and TEV cleavage site, Sirt5-(34-302) in pET-151/D-TOPO, and Sirt6-(1-355) in pQE80L.1 were purified as described. […]
(§2) Continuous coupled enzymatic sirtuin activity assays were conducted as described. […] Reactions were monitored for 1 h at room temperature by absorption spectroscopy at 340 nm in a UV/vis plate reader (BioTek). The slope for the linear range (typically 5–25 min) was evaluated after background correction with measurements without NAD^+. Additional control reactions were run by either omitting enzyme or omitting peptide substrate to ensure that the signal measured reflects the NAD+-dependent deacetylation activity of the sirtuin.

[2] = molecular target: T2, human Sirt5 (Homo sapiens, UniProt Q9NXA8); assay: Continuous coupled enzymatic assay, Sirt5; format: biochemical; conditions: 65 μM Tat-Cys^−, succinylated peptide at substrate Km, n = 3
T2 construct: Sirt5-(34-302) in pET-151/D-TOPO; made in house; host or cells: E. coli CodonPlus(DE3)
T2 sequence (Q9NXA8 34-302): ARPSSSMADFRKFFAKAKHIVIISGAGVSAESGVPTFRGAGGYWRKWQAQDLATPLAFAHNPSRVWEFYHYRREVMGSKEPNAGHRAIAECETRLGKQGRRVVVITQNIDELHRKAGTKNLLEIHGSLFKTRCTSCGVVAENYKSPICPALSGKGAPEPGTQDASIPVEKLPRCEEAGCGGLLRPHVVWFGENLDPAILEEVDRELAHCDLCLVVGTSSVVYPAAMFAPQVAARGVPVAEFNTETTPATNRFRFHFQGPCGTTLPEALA
Excerpt: as §1, §2

[3] = molecular target: T3, mini-Sirt1 (Homo sapiens, UniProt Q96EB6); assay: DSSO crosslinking and MS analysis of mini-Sirt1/Tat-Cys^−; format: binding
T3 construct: aa 183-505-(GGGS)2-641-665; made in house; host or cells: E. coli CodonPlus(DE3)
T3 sequence (Q96EB6 with tags, fused parts or gaps limits assumed): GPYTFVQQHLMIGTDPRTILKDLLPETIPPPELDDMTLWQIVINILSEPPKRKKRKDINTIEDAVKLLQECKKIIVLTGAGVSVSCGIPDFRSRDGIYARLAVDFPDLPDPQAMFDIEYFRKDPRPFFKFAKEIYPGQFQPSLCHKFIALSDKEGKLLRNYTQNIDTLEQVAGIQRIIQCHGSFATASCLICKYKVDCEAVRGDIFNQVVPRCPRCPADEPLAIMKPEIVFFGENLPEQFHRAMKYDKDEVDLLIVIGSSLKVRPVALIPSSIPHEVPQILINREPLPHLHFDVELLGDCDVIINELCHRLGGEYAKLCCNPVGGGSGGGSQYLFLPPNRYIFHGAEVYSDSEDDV
Description: Prior to crosslinking, mini-Sirt1, and Tat-Cys^− were dialyzed separately at 4 °C in Xpress Micro Dialyzer tubes (Serva, MD300, cutoff 6–8 kDa) against 25 mM HEPES, pH 7.5, 150 mM NaCl, 5% (v/v) glycerol. Then, 50 µM of each protein was crosslinked at 20 °C with 2.82 mM disuccinimidyl sulfoxide (DSSO) in 5% (v/v) DMSO. Before the addition of the crosslinker, 10 µL was removed from the reaction (t = 0 min) and stopped by adding 1 µL 1 M Tris/HCl, pH 8.0. Likewise, at several timepoints after the addition of DSSO, 10 µL of the reaction was sampled. Reaction samples were supplemented with SDS sample buffer and separated on a 15% SDS-PAGE. Controls contained only one of the two proteins and were treated similarly to exclude self-crosslinking.
Crosslinked protein bands were cut out from SDS-PAGE gels and digested with 200 ng trypsin in 25 mM NH4HCO3, pH 8.0, at 37 °C overnight. The digested proteins were dried in a vacuum centrifuge, resuspended in 0.1% (v/v) FA, and injected onto a desalting column, followed by automated peptide separation with a C18 column (buffer A: 0.1% (v/v) FA, 5% (v/v) acetonitrile; buffer B: 0.1% (v/v) FA, 95% (v/v) acetonitrile). MS/MS spectra were recorded with an LTQ mass spectrometer (Thermo Fischer Scientific, Waltham, MA, USA) and CID-cleaved inter-protein crosslinks were analyzed with Byonic^TM (Protein Metrics Inc., San Carlos, CA, USA).

B1: Tat-Cys^−: Recombinant 86-residue HIV1 Zaire 2 Tat with C22S, C25A, C27A, C30S, C31A, C34S, and C37A (protein)
chain: MDPVDPNIEPWNHPGSQPKTASNRAHAKKSAYHSQVAFITKGLGISYGRKKRRQRRRPSQGGQTHQDPIPKQPSSQPRGDPTGPKE
With B1 the “inhibitory effect on Sirt2, continuous assay” value [1] was “pronounced inhibitory effects”, the “inhibitory effect on Sirt5, continuous assay” value [2] was “no statistically significant effect was observed” and the “crosslinking, SDS-PAGE” value ([3]; 50 µM each protein, 2.82 mM DSSO, 5% (v/v) DMSO, pH 7.5, 20 °C) was “a strong band for a linked complex”. The “crosslink site by MS” value ([3]; DSSO crosslink, trypsin digest, MS/MS) was “a crosslink between Tat-Lys71 and Sirt1-Lys238”.

From PMC10144703, “Molecular Mechanism of Sirtuin 1 Inhibition by Human Immunodeficiency Virus 1 Tat Protein” (Life, 2023)
